Consider one substance from article PMC3287977.

Assay [1] has as its target A. fulgidus HypB, tag-free (Archaeoglobus fulgidus). In words: SEC-MALS; AfHypB (0.5 mM) preloaded with 5 mM GMPPNP and 1 mM NiCl2, excess removed; Superdex-75 HR10/30, 50 mM Tris pH 7.5, 0.2 M NaCl, 5 mM MgCl2, 1 mM TCEP. (Size exclusion chromatography separates by hydrodynamic size, large species first.)
Assay [2] addresses A. fulgidus HypA, tag-free (Archaeoglobus fulgidus) (UniProt O28904). In words: SEC-MALS; equimolar AfHypA and AfHypB preloaded with GDP (monomeric form); Superdex-75 HR10/30, 50 mM Tris pH 7.5, 0.2 M NaCl, 1 mM TCEP, room temperature; peaks checked by SDS-PAGE.
Sequence of UniProt O28904 (O28904 whole entry): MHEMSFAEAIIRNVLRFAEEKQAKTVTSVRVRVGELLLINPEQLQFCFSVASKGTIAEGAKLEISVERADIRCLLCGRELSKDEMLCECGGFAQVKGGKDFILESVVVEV

Take “A. fulgidus HypB, tag-free (natural protein)”: the stoichiometry N was 2 in assay [1] and 1 in assay [2].

The stoichiometry N is a count of units in the complex or per binding partner.
